We go through eight molecules from US20250334575A1 (UNIVERSITY OF VERMONT AND STATE AGRICULTURE COLLEGE, published 2025).

The target of assay [1] is FcγRIIa (low affinity immunoglobulin gamma Fc region receptor II-a) (human) (UniProt P12318). The assay can be described thus: co-immunoprecipitation with FcγRIIa from activated platelets, mass spectrometry of the excised band.
Assay [2] has the same target. In words: cell-based or functional assay.
In a further assay the target is activated GP IIb-IIIa (human, UniProt P08514 32-1039; P05106 27-788). In words: cell-based or functional assay.
activated GP IIb-IIIa, sequence (P08514 32-1039, chain 1 of 2): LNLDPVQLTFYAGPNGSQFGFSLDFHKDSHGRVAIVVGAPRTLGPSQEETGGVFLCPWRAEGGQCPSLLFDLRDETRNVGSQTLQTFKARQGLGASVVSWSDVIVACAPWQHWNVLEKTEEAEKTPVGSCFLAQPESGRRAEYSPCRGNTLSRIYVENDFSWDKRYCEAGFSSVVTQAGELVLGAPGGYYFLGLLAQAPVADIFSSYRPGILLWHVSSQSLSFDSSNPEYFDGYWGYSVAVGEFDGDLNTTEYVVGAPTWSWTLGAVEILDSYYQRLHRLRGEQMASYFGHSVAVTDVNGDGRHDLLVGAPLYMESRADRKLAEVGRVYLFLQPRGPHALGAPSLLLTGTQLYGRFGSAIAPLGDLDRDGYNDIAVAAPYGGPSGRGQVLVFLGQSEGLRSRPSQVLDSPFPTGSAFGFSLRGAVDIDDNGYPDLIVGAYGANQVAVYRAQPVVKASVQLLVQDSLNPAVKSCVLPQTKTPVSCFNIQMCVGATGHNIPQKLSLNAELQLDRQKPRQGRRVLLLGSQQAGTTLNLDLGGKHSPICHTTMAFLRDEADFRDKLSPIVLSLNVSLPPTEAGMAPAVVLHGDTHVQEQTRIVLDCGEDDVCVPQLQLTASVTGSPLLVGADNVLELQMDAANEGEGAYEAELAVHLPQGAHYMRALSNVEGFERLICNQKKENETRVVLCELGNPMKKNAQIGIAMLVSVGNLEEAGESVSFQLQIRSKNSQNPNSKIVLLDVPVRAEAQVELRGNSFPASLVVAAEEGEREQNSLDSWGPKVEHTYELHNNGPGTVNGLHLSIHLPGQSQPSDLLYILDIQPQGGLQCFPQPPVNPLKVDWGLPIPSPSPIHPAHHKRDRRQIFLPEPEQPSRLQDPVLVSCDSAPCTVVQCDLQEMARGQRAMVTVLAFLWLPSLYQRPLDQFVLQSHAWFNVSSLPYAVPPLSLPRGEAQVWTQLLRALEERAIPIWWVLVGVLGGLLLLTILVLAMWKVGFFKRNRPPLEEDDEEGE
activated GP IIb-IIIa, sequence (P05106 27-788, chain 2 of 2): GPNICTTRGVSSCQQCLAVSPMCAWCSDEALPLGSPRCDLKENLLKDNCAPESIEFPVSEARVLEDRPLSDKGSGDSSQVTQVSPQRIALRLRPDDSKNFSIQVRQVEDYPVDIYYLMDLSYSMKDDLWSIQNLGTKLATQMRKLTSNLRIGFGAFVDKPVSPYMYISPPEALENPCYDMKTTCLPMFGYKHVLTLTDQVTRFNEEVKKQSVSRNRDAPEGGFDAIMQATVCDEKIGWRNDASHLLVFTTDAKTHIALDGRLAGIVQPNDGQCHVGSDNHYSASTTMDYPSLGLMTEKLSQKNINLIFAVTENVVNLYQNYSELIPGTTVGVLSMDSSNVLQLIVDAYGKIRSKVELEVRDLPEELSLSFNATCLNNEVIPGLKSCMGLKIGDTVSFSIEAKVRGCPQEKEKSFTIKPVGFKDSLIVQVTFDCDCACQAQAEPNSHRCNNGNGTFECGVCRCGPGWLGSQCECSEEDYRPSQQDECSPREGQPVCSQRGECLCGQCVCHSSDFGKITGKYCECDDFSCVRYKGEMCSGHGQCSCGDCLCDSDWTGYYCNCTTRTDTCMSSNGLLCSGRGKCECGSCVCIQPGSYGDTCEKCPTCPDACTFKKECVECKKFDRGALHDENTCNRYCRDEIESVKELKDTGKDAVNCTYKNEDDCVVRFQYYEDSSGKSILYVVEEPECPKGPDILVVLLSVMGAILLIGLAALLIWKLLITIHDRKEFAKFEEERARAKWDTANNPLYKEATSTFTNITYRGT

FcγRIIa (low affinity immunoglobulin gamma Fc region receptor II-a) (human), sequence (P12318 34-317 limits assumed, form in doubt): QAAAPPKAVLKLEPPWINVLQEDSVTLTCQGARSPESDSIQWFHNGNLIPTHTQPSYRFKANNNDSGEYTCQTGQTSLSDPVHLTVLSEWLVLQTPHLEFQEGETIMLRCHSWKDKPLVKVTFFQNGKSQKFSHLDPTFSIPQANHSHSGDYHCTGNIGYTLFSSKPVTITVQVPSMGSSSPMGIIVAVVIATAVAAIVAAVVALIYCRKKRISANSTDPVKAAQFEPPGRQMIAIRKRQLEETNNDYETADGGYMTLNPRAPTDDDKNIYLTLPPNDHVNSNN

In assay [1], filamin displayed a share of the protein content of the 90 kDa band co-immunoprecipitated with FcγRIIa of 1%.
For nexilin (from UniProt Q0ZGT2 1-675), the share of the protein content of the 75 kDa band co-immunoprecipitated with FcγRIIa in assay [1] is 3%.
In assay [1], actin showed a share of the protein content of the 55 kDa band co-immunoprecipitated with FcγRIIa of 3% and a share of the protein content of the 75 kDa band co-immunoprecipitated with FcγRIIa of 1%.
Regarding “coagulation Factor V (from UniProt P12259 29-2224)”, the share of the protein content of the 75 kDa band co-immunoprecipitated with FcγRIIa in assay [1] was 4%.
Molecule “SRC kinase Lyn (from UniProt P07948 2-512) (enzyme)” yielded a share of the protein content of the 55 kDa band co-immunoprecipitated with FcγRIIa in assay [1] of 1%.
gelsolin (from UniProt P06396 1-731): the share of the protein content of the 90 kDa band co-immunoprecipitated with FcγRIIa in assay [1] amounted to 6%.

B1: fibrinogen (other, human)
chain 1: ADSGEGDFLAEGGGVRGPRVVERHQSACKDSDWPFCSDEDWNYKCPSGCRMKGLIDEVNQDFTNRINKLKNSLFEYQKNNKDSHSLTTNIMEILRGDFSSANNRDNTYNRVSEDLRSRIEVLKRKVIEKVQHIQLLQKNVRAQLVDMKRLEVDIDIKIRSCRGSCSRALAREVDLKDYEDQQKQLEQVIAKDLLPSRDRQHLPLIKMKPVPDLVPGNFKSQLQKVPPEWKALTDMPQMRMELERPGGNEITRGGSTSYGTGSETESPRNPSSAGSWNSGSSGPGSTGNRNPGSSGTGGTATWKPGSSGPGSTGSWNSGSSGTGSTGNQNPGSPRPGSTGTWNPGSSERGSAGHWTSESSVSGSTGQWHSESGSFRPDSPGSGNARPNNPDWGTFEEVSGNVSPGTRREYHTEKLVTSKGDKELRTGKEKVTSGSTTTTRRSCSKTVTKTVIGPDGHKEVTKEVVTSEDGSDCPEAMDLGTLSGIGTLDGFRHRHPDEAAFFDTASTGKTFPGFFSPMLGEFVSETESRGSESGIFTNTKESSSHHPGIAEFPSRGKSSSYSKQFTSSTSYNRGDSTFESKSYKMADEAGSEADHEGTHSTKRGHAKSRPVRGIHTSPLGKPSLSP
chain 2: QGVNDNEEGFFSARGHRPLDKKREEAPSLRPAPPPISGGGYRARPAKAAATQKKVERKAPDAGGCLHADPDLGVLCPTGCQLQEALLQQERPIRNSVDELNNNVEAVSQTSSSSFQYMYLLKDLWQKRQKQVKDNENVVNEYSSELEKHQLYIDETVNSNIPTNLRVLRSILENLRSKIQKLESDVSAQMEYCRTPCTVSCNIPVVSGKECEEIIRKGGETSEMYLIQPDSSVKPYRVYCDMNTENGGWTVIQNRQDGSVDFGRKWDPYKQGFGNVATNTDGKNYCGLPGEYWLGNDKISQLTRMGPTELLIEMEDWKGDKVKAHYGGFTVQNEANKYQISVNKYRGTAGNALMDGASQLMGENRTMTIHNGMFFSTYDRDNDGWLTSDPRKQCSKEDGGGWWYNRCHAANPNGRYYWGGQYTWDMAKHGTDDGVVWMNWKGSWYSMRKMSMKIRPFFPQQ
chain 3: YVATRDNCCILDERFGSYCPTTCGIADFLSTYQTKVDKDLQSLEDILHQVENKTSEVKQLIKAIQLTYNPDESSKPNMIDAATLKSRKMLEEIMKYEASILTHDSSIRYLQEIYNSNNQKIVNLKEKVAQLEAQCQEPCKDTVQIHDITGKDCQDIANKGAKQSGLYFIKPLKANQQFLVYCEIDGSGNGWTVFQKRLDGSVDFKKNWIQYKEGFGHLSPTGTTEFWLGNEKIHLISTQSAIPYALRVELEDWNGRTSTADYAMFKVGPEADKYRLTYAYFAGGDAGDAFDGFDFGDDPSDKFFTSHNGMQFSTWDNDNDKFEGNCAEQDGSGWWMNKCHAGHLNGVYYQGGTYSKASTPNGYDNGIIWATWKTRWYSMKKTTMKIIPFNRLTIGEGQQHHLGGAKQAGDV
Consider B1, for which, in assay [2], the fold induction of ADP-induced activation of platelets (surface expression of P-selectin) after addition of fibrinogen worked out at 1.5 fold and the fold induction of ADP-induced activation of platelets by added fibrinogen after pretreatment with IV.3 (100 µg/ml) worked out at 0.9 fold. In addition, the “fold induction of ADP-induced activation of platelets by added fibrinogen in the presence of tirofiban (0.5 µg/ml)” value in the assay with activated GP IIb-IIIa was 1.2 fold. In addition, in assay [1], the share of the protein content of the 55 kDa band co-immunoprecipitated with FcγRIIa is 33%, the share of the protein content of the 75 kDa band co-immunoprecipitated with FcγRIIa was determined as 24% and the share of the protein content of the 90 kDa band co-immunoprecipitated with FcγRIIa amounted to 80%.

B2: coagulation Factor XIII (enzyme, human, UniProt P00488 2-732, looked up)
chain: SETSRTAFGGRRAVPPNNSNAAEDDLPTVELQGVVPRGVNLQEFLNVTSVHLFKERWDTNKVDHHTDKYENNKLIVRRGQSFYVQIDFSRPYDPRRDLFRVEYVIGRYPQENKGTYIPVPIVSELQSGKWGAKIVMREDRSVRLSIQSSPKCIVGKFRMYVAVWTPYGVLRTSRNPETDTYILFNPWCEDDAVYLDNEKEREEYVLNDIGVIFYGEVNDIKTRSWSYGQFEDGILDTCLYVMDRAQMDLSGRGNPIKVSRVGSAMVNAKDDEGVLVGSWDNIYAYGVPPSAWTGSVDILLEYRSSENPVRYGQCWVFAGVFNTFLRCLGIPARIVTNYFSAHDNDANLQMDIFLEEDGNVNSKLTKDSVWNYHCWNEAWMTRPDLPVGFGGWQAVDSTPQENSDGMYRCGPASVQAIKHGHVCFQFDAPFVFAEVNSDLIYITAKKDGTHVVENVDATHIGKLIVTKQIGGDGMMDITDTYKFQEGQEEERLALETALMYGAKKPLNTEGVMKSRSNVDMDFEVENAVLGKDFKLSITFRNNSHNRYTITAYLSANITFYTGVPKAEFKKETFDVTLEPLSFKKEAVLIQAGEYMGQLLEQASLHFFVTARINETRDVLAKQKSTVLTIPEIIIKVRGTQVVGSDMTVTVEFTNPLKETLRNVWVHLDGPGVTRPMKKMFREIRPNSTVQWEEVCRPWVSGHRKLIASMSSDSLRHVYGELDVQIQRRPSM
As to B2, the “fold induction of ADP-induced activation of platelets by added Factor XIII in the presence of tirofiban (0.5 µg/ml)” value with activated GP IIb-IIIa stood at 0.8 fold. In assay [1], this molecule came in with a share of the protein content of the 75 kDa band co-immunoprecipitated with FcγRIIa of 38% and a share of the protein content of the 90 kDa band co-immunoprecipitated with FcγRIIa of 1%.
